Broadly, the Kd is the free concentration of one partner at which half of the binding sites on the other are occupied at equilibrium, for simple one-to-one binding. High values mean weaker binding, low ones tighter binding.

Experimental findings from US20240425569A1 (VISTERRA, published 2024) are described below.

Read-outs that look alike come from different tables or passages of the source. A value given as a limit tells only on which side of the number the result lay.

Assay [1] deals with T1, Venezuela/2008 (serotype IV EDIII).
T1 E protein domain III (EDIII): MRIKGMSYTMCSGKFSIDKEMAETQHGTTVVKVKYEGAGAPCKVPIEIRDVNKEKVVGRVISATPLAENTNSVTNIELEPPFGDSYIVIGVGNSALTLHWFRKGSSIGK
Nature of the assay: ELISA; row Venezuela/2008, serotype IV, genotype IIa.

Assay [2] has as its target T2, Philippines/1956 (H87)* (serotype III EDIII) (Dengue virus 3).
T2 construct: isolated EDIII protein
Nature of the assay: SPR; row Philippines/1956 (H87)*, serotype III, genotype I. For orientation: SPR reads the build-up and loss of mass on a sensor chip optically.

The target of assay [3] is T3, Mexico/1977 (BC287/97)* (serotype IV EDIII) (Dengue virus 4).
T3 construct: isolated EDIII protein; also called EDIII of DENV-4 Mexico/1997 (BC287/97); DENV-4 BC2
Nature of the assay: SPR; row Mexico/1977 (BC287/97)*, serotype IV, genotype IIa.

The target in assay [4] is T4, Cambodia/2008 (serotype III EDIII).
T4 construct: Genotype II; also called ED3-DV3/Cambodia08
T4 E protein domain III (EDIII): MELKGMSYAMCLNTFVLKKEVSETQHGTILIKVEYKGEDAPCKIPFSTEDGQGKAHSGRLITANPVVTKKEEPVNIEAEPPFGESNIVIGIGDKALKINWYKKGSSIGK
Nature of the assay: SPR; row Cambodia/2008, serotype III, genotype II.

Assay [5] addresses T5, EDIII-DV2 (E protein domain III of dengue virus serotype DV-2) (dengue virus serotype DV-2, UniProt P14337 573-677).
T5 construct: also called DENV-2; EDIII of DV-2

For assay [6], the target named is T6, Malaysia/2005 (serotype I EDIII).
T6 construct: also called ED3-DV1/Malaysia05
T6 E protein domain III (EDIII): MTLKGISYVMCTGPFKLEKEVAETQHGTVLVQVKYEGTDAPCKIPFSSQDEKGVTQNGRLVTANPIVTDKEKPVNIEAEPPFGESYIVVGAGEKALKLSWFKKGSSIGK

Assay [7] addresses T7, Mexico/2007 (serotype I EDIII).
T7 construct: also called ED3-DV1/Mexico07
T7 E protein domain III (EDIII): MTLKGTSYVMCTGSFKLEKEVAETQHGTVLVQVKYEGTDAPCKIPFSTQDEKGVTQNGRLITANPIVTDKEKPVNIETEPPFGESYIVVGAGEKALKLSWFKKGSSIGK

The target in assay [8] is T8, Puerto Rico/1977 (serotype III EDIII).
T8 construct: Genotype IV; also called ED3-DV3/PuertoRico77
T8 E protein domain III (EDIII): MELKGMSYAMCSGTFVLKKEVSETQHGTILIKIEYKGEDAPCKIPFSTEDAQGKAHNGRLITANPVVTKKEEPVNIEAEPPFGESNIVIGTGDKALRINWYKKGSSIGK
Put plainly: SPR; row Puerto Rico/1977, serotype III, genotype IV.

For assay [9], the target named is T9, New Caledonia/2009 (serotype IV EDIII).
T9 construct: also called ED3-DV4/NewCal09; DENV-4 NC
T9 E protein domain III (EDIII): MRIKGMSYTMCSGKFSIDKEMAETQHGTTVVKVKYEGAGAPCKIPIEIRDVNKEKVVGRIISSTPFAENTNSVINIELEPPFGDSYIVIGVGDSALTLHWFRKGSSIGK
Nature of the assay: ELISA; row New Caledonia/2009, serotype IV, genotype IIb. (In general: An ELISA detects its analyte on a solid surface through an enzyme-linked reagent.)

In assay [10] the target is dengue virus DENV-3 strain Philippines/1956 (H87) (live virus; E protein) (dengue virus serotype DENV-3, strain …, UniProt P27915 281-773). Nature of the assay: cell-based or functional assay.
Assay [11] deals with dengue virus DENV-4 strain Mexico/1997 (BC287/97) (live virus; E protein) (dengue virus serotype DENV-4, strain …). Nature of the assay: cell-based or functional assay.
Assay [12] addresses dengue virus DENV-2 strain New Guinea/1944 (NGC) (live virus; E protein) (dengue virus serotype DENV-2, strain …, UniProt P14340 281-775). Put plainly: cell-based or functional assay.
Assay [13] addresses dengue virus DENV-1 strain Hawaii/1944 (live virus; E protein) (dengue virus serotype DENV-1, strain …). Put plainly: cell-based or functional assay.
For assay [14], the target named is T10, Singapore/2008 (serotype II EDIII).
T10 construct: also called ED3-DV2/Sing08; DENV-2 Sing
Nature of the assay: Kd table, method not stated; Ag DENV-2 Sing.

Assay [15] has the same target. Nature of the assay: ELISA; row Singapore/2008, serotype II, genotype Cosmopolitan.
Assay [16] has as its target T9, New Caledonia/2009 (serotype IV EDIII). Put plainly: Kd table, method not stated; Ag DENV-4 NC.
In assay [17] the target is T11, Singapore/2010 (serotype IV EDIII).
T11 construct: also called ED3-DV4/Sing10; DENV-4 Sing
T11 E protein domain III (EDIII): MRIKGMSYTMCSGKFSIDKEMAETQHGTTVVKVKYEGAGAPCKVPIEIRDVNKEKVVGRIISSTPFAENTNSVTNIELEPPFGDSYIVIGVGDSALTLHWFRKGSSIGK
Nature of the assay: ELISA; row Singapore/2010, serotype IV, genotype IIb.

Assay [18] has as its target T12, EDIII-DV3 (E protein domain III of dengue virus serotype DV-3) (dengue virus serotype DV-3, UniProt P27915 571-678).
T12 construct: also called DENV-3; EDIII of DV-3

The target in assay [19] is T13, EDIII-DV4 (E protein domain III of dengue virus serotype DV-4) (dengue virus serotype DV-4, UniProt P09866 572-679).
T13 construct: also called DENV-4
T13 sequence (P09866 572-679, tags left off): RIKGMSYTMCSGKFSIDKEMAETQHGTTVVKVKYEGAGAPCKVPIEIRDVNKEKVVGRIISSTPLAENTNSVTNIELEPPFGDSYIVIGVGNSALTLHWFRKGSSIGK

Assay [20] deals with T2, Philippines/1956 (H87)* (serotype III …).
Assay [21] deals with T9, New Caledonia/2009 (serotype IV EDIII). Nature of the assay: SPR; row New Caledonia/2009, serotype IV, genotype IIb.

T5 sequence (P14337 573-677, tags left off): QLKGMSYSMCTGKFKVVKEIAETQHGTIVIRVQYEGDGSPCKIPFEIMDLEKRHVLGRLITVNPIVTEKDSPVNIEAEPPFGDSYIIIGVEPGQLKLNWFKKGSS

B1: antibody D88 (antibody, V domains shown)
VH: QVQLVQSGAEVKKPGASVKVSCKAGFNIKDVYMSWVRQAPEQGLEWMGRIDPENGDTKYDPKLQGRVTMTADTSTNTAYMELRSLRSDDTAVYYCARGWEGFAYWGQGTLVTVSS
VL: DIVMTQSPASLAVSLGERATISCRASENVDKYGNSFMHWYQQKPGQPPKLLIYRASELQWGVPDRFSGSGSGTDFTLTISSLQAEDVAVYYCQRSNEVPWTFGQGTKLEIK
notes: also called mAb D88
Consider B1, for which the dissociation constant Kd was 4.5 nM in assay [1]; 1 nM in assay [2]; 3.8 nM in assay [3]; 2.47 nM in [4]; 0.016 nM in assay [5]; below 0.1 nM in assay [6]. Moreover, the Kd in [7] was 0.071 nM; in [8] it was 1.4 nM; in assay [9] it was 10.8 nM; in [14], below 0.1 nM; in [15] it was below 0.1 nM; in assay [16], 10.8 nM. The Kd in [17] was 8.43 nM; in assay [18] it was 1.05 nM; in assay [19], 5.01 nM; in assay [20], 1.2 nM; in assay [21], 8.9 nM. Also, the “EC50, FRNT” value in [10], in [11], in assay [12] and in [13] was below 1 µg/mL in each case.
